Where a chain is given by its changes, count along the chain named.
What was measured:
recombinant human IL-5 [1] = target: recombinant human IL-5 (human, UniProt P05113 20-134); test: Biacore, Ab on Protein A chip
recombinant human IL-5 [2] = target: recombinant human IL-5 (human, UniProt P05113 20-134); test: Biacore
Cynomolgus IL-5 = Cynomolgus IL-5 (cynomolgus monkey); test: cell-based or functional assay

B1: 3A5.211 (antibody, human IgG4 S228P, lambda, name in Kabat numbering, V domains shown)
VH: QVQLQESGPGLVKPSQTLSLTCTVSGGSISNGGYYWSWIRQHPGKGLEWIGYIYYSGSTYYNPSLKSRVTISVDTSKNQFSLKLSSVTAADTAVYYCASLGNWFDYWGQGTLVTVSS
VL: SYVLTQPPSVSVAPGQTARITCGGNNIGSKNVYWYQQKPGQAPVLVVHDDSDRPSGIPERFSGSNSGNTATLTISRVEVGDEADYSCQAWDSSSDHVVFGGGTKLTVLG
Recombinant human IL-5 [1]
  proportional kd vs parent 3A5.040: 1 ratio

B2: 3A5.508 (antibody, human IgG4 S228P, lambda, name in Kabat numbering, V domains shown)
VH: B1 VH with G101A
VL: B1 VL with A89V
Recombinant human IL-5 [2]
  proportional kd vs parent 3A5.040: 0.8

B3: 3A5.046 (antibody, human IgG4 S228P, lambda)
heavy: QVQLQESGPGLVKPSQTLSLTCTVSGGSISNGGYYWSWIRQHPGKGLEWIGYIYYSGSTYYNPSLKSRVTISVDTSKNQFSLKLSSVTAADTAVYYCASLGNWFDYWGQGTLVTVSSASTKGPSVFPLAPCSRSTSESTAALGCLVKDYFPEPVTVSWNSGALTSGVHTFPAVLQSSGLYSLSSVVTVPSSSLGTKTYTCNVDHKPSNTKVDKRVESKYGPPCPPCPAPEFLGGPSVFLFPPKPKDTLYITREPEVTCVVVDVSQEDPEVQFNWYVDGVEVHNAKTKPREEQFNSTYRVVSVLTVLHQDWLNGKEYKCKVSNKGLPSSIEKTISKAKGQPREPQVYTLPPSQEEMTKNQVSLTCLVKGFYPSDIAVEWESNGQPENNYKTTPPVLDSDGSFFLYSRLTVDKSRWQEGNVFSCSVMHEALHNHYTQKSLSLSLG
light: SYVLTQPPSVSVAPGQTARITCGGNNIGSKNVYWYQQKPGQAPVLVVHDDSDRPSGIPERFSGSNSGNTATLTISRVEVGDEADYSCQVWDSSSDHVVFGGGTKLTVLGQPKAAPSVTLFPPSSEELQANKATLVCLISDFYPGAVTVAWKADSSPVKAGVETTTPSKQSNNKYAASSYLSLTPEQWKSHRSYSCQVTHEGSTVEKTVAPTECS
Cynomolgus IL-5
  Mean (pM): mean IC50, TF-1.6G4 cell line proliferation assay: 43.8 pM

Source: patent US20210355205A1 (published 2021)
